The assay in a line: Sphingomyelinase treatment of ICP (hydrolysis of SPM, TLC, cholesterol release). The assay is classed as biochemical, human. The protocol:
FIG. 7A show the effect of hydrolyzing SPM on ICP by sphingomyelinase on the ICP SPM to PC ratio. Following incubation of ICP in 0.25 M Tris buffer containing 20 mM MgCl2 with 50 units of bacterial sphingomyelinase for 6 hrs at 37° C., the reaction of sphingomyelinase was stopped by adding EDTA and a subsequent wash. A change in the SPM to PC ratio of insoluble ICP was examined by TLC. SPM to PC ratios of control ICP (top) and sphingomyelinase-treated ICP (bottom) were 1.69 and 0.49, respectively.
FIG. 7B show the effect of hydrolyzing SPM on ICP by sphingomyelinase on the release of ICP cholesterol by apo HDL or R-HDL. ICP sphingomyelinase treatment was as described in FIG. 7A. Release of cholesterol from control or sphingomyelinase-treated ICP was then measured after incubation of ICP at ICP FC to apo HDL ratio=1:2.5 or ICP FC to R-HDL PC ratio of 1:10.
Treatment of ICP with bacterial sphingomyelinase hydrolyzed 70% of ICP SPM. […] Rather, the release of ICP cholesterol into TBS, apo HDL, or R-HDL was reduced by prior sphingomyelinase treatment of ICP (FIG. 7B). As a model of ICP, artificial multilamellar SPM vesicles enriched with FC (SPM/FC ratio=1) or containing no FC (control SPM) were incubated with R-HDL. Then, PC and SPM content in residual insoluble multilamellar SPM vesicles and solubilized vesicles were determined by TLC (FIG. 7C). After incubation of FC-enriched multilamellar SPM vesicles (SPM/FC+, FIG. 7C, lane 1) with R-HDL (lane 4), insoluble multilamellar vesicles contained not only SPM but also PC (lane 2), while the soluble fraction contained only PC (lane 3). In contrast, following incubation of FC-free multilamellar SPM vesicles (SPM/FC−, lane 5) with R-HDL (lane 8), the residual insoluble multilamellar vesicles contained SPM and no PC (lane 6), and the upper soluble fraction contained both SPM and PC (lane 7).

B1: bacterial sphingomyelinase: Bacterial (Bacilus cereus) sphingomyelinase from Sigma (protein, UniProt P09599 28-333, looked up)
Sphingomyelinase C: DTSTDQNNTLKVMTHNVYMLSTNLYPNWGQSQRADLIGAADYIKNQDVVILNEVFDNSASDRLLGNLKKEYPNQTAVLGRSNGNEWDKTLGSYSSSTPEDGGVAIVSKWPIVEKIQYVFAKGCGPDNLSNKGFVYTKIKKNDRFVHVIGTHLQAEDSMCGKTSPASVRTNQLKEIQDFIKNKNIPNDEYVLFGGDMNVNKINAENNSDSEYASMFKTLHASIPSYTGHTATWDATTNSIAKYNFPDSPAEYLDYIIASKDHANPSFIENKVLQPKSPQWTVTSWLKKYTYDDYSDHYPVAATISMK
As to B1, the “ICP SPM hydrolyzed” value (50 units bacterial sphingomyelinase, 6 hrs, 37° C.) turned out to be 70%. For the same molecule, for the setting “FIG. 7B”, the “release of ICP cholesterol into TBS, apo HDL or R-HDL after prior sphingomyelinase treatment (in words)” value is recorded as “reduced”. For the same molecule, where the note is “control ICP 1.69 / 1.6, TLC”, the “ICP SPM/PC ratio after sphingomyelinase treatment” value is recorded as 0.49.
